# Data reported in paper PMC8424217 (The Journal of Biological Chemistry, 2021).
# * marks the point of attachment. Palmitoyl = CCCCCCCCCCCCCCCC(=O)*
# B1: [Trp^1, Leu^2]hUT-Pep3 (peptide)
# peptide: Palmitoyl-WLSQRASFKRARR-NH2
# SMILES: CCCCCCCCCCCCCCCC(=O)N[C@@H](Cc1c[nH]c2ccccc12)C(=O)N[C@@H](CC(C)C)C(=O)N[C@@H](CO)C(=O)N[C@@H](CCC(N)=O)C(=O)N[C@@H](CCCNC(=N)N)C(=O)N[C@@H](C)C(=O)N[C@@H](CO)C(=O)N[C@@H](Cc1ccccc1)C(=O)N[C@@H](CCCCN)C(=O)N[C@@H](CCCNC(=N)N)C(=O)N[C@@H](C)C(=O)N[C@@H](CCCNC(=N)N)C(=O)N[C@@H](CCCNC(=N)N)C(N)=O
# B2: hUT-Pep2 (peptide)
# peptide: Palmitoyl-RPLDTVQRPKGY-NH2
# SMILES: CCCCCCCCCCCCCCCC(=O)N[C@@H](CCCNC(=N)N)C(=O)N1CCC[C@H]1C(=O)N[C@@H](CC(C)C)C(=O)N[C@@H](CC(=O)O)C(=O)N[C@H](C(=O)N[C@H](C(=O)N[C@@H](CCC(N)=O)C(=O)N[C@@H](CCCNC(=N)N)C(=O)N1CCC[C@H]1C(=O)N[C@@H](CCCCN)C(=O)NCC(=O)N[C@@H](Cc1ccc(O)cc1)C(N)=O)C(C)C)[C@@H](C)O
# Legend:
# [1] = target: T1, rat thoracic aorta rings (Rattus norvegicus, UniProt P49684); assay: Rat aortic ring contraction (agonist); details: mean ± SEM
# T1 sequence (P49684 1-386): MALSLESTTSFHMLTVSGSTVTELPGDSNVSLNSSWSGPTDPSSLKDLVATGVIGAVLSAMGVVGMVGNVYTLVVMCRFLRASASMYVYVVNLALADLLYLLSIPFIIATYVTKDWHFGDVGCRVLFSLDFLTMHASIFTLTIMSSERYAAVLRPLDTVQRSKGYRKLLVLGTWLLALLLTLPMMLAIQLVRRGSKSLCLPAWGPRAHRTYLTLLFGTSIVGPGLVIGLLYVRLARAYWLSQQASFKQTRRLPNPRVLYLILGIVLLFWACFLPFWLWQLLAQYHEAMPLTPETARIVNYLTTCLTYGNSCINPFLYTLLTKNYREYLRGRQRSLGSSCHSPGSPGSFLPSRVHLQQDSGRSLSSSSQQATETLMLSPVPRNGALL
# Description: (§1) Each replicate (n) was conducted on tissue obtained from at least three different animals. Data represent mean ± SEM.
# (§2) Adult male Sprague-Dawley rats (Charles-River) weighing 250–300 g were housed in cages under controlled illumination (12:12 h light–dark cycle), humidity, and temperature (21–23 °C) and had free access to tap water and rat chow. All experimental procedures were performed in accordance with regulations and ethical guidelines from the Canadian Council for the Care of Laboratory Animals and received approvals of the institutional animal care and use committee of the Institut National de la Recherche Scientifique—Centre Armand-Frappier Santé Biotechnologie. As previously described ([17], [18]), the thoracic aorta was cleared of surrounding tissue and then excised from the aortic arch to the diaphragm. Conjunctive tissues were next removed from the thoracic aorta and the vessels were divided into five rings of 4 mm. The endothelium of each aortic ring was removed by gently rubbing the vessel intimal surface. Aortic rings were then placed in a 5 ml organ bath filled with oxygenated normal Krebs–Henseleit buffer. Eighty microliters of a 2.5 M potassium chloride solution (40 mM final concentration) was used to evaluate maximal contractile responses of each vessel. […] Cumulative concentration–response curves to synthetic peptides were obtained by increasing the concentration of each peptide in the remaining organ chambers (10^−11–10^−5 M).
# [2] = target: T1, rat thoracic aorta rings; assay: Modulation of URP-mediated rat aortic ring contraction; details: URP alone, percentage of KCl (40 mM) contraction divided by tissue response to URP (10^−6 M), mean ± SEM, n = 22, read-out: URP-mediated contraction Emax, control (no pretreatment)
# Description: as §1, §2
# [3] = target: T2, human urotensin II receptor, on HEK 293 cells stably expressing it (human) (UniProt Q9UKP6)
# T2 sequence: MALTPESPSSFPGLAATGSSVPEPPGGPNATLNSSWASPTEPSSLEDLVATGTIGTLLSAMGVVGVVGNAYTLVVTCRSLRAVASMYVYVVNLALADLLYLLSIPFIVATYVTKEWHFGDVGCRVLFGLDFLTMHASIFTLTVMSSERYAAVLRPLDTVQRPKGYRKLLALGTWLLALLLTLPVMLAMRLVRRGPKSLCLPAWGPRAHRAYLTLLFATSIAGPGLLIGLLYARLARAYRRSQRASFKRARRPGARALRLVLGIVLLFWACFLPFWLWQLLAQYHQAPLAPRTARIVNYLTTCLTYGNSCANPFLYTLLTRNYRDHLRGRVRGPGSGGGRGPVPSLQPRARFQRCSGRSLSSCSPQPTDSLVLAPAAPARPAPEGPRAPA
# [4] = target: T3, human urotensin II receptor, on CHO-K1 cells stably expressing it (human) (UniProt Q9UKP6)
# T3 sequence: T2 sequence
# [5] = target: T3, human urotensin II receptor, on CHO-K1 cells stably expressing it (human); remark: listed apart in the source
# [6] = scale: % of the activation induced by hUII
Molecule,"contraction pEC50 ([1]; n = 22 (hUII, URP), n = 5 (pepducins))","Emax ([1]; percentage of contraction induced by 40 mM KCl, n = 22) [%]",Emax [2] [%],"G13 activation (BRET biosensor), HEK 293-hUT cells; pEC50 [3]","Gi activation (BRET biosensor), HEK 293-hUT cells; pEC50 [3]","Gq activation (BRET biosensor), HEK 293-hUT cells; pEC50 [3]","β-arrestin 1 conformational change (BRET biosensor), HEK 293-hUT cells; pEC50 [3]","β-arrestin 2 conformational change (BRET biosensor), HEK 293-hUT cells; pEC50 [3]","G12 activation (BRET biosensor), HEK 293-hUT cells; maximum efficacy at 10^-6 M [3, 6]","G13 activation (BRET biosensor), HEK 293-hUT cells; Emax [3, 6]","Gi activation (BRET biosensor), HEK 293-hUT cells; Emax [3, 6]","Gq activation (BRET biosensor), HEK 293-hUT cells; Emax [3, 6]","β-arrestin 1 conformational change (BRET biosensor), HEK 293-hUT cells; Emax [3, 6]","β-arrestin 2 conformational change (BRET biosensor), HEK 293-hUT cells; Emax [3, 6]","IP1 production (IP-One terbium immunoassay), CHO-hUT cells, 40 min; efficacy at 10^-5 M (% of the hUII maximum effect) [4]","IP1 production (IP-One terbium immunoassay), CHO-hUT cells, 40 min; pEC50 [4]","ERK1/2 phosphorylation (western blot), CHO-hUT cells, 5 min; Emax (% of the hUII maximum effect) [5]","ERK1/2 phosphorylation (western blot), CHO-hUT cells, 5 min; pEC50 [5]","β-arrestin 2 conformational change (BRET biosensor), HEK 293-hUT cells; maximum efficacy at 10^-6 M [3, 6]"
"CC(C)[C@H](NC(=O)[C@@H]1CSSC[C@H](NC(=O)[C@H](C)N)C(=O)N[C@@H](Cc2ccccc2)C(=O)N[C@@H](Cc2c[nH]c3ccccc23)C(=O)N[C@@H](CCCCN)C(=O)N[C@@H](Cc2ccc(O)cc2)C(=O)N1)C(=O)O [URP, urotensin II-related peptide, reference compound]",8.10 ± 0.06,108 ± 3,105 ± 3,–,–,–,–,–,–,–,–,–,–,–,–,–,–,–,–
B1,–,–,–,6.51 -log EC50,10.4 -log EC50,8.34 -log EC50,8.08 -log EC50,7.74 -log EC50,5,185,97,29,18,19,60,< 6 -log EC50,56,6.7 -log EC50,–
B2,–,–,–,6.33 -log EC50,10.1 -log EC50,7.31 -log EC50,–,–,–,154,96,9,–,–,35,< 6 -log EC50,34,7.26 -log EC50,15
